Laboratory results published in patent US20250188457A1, “COMPOSITIONS AND METHODS FOR THE TREATMENT OF GLIOBLASTOMA BY INHIBITION OF THE TFPI2-CD51-STAT6 SIGNALING AXIS” (Northwestern University, priority 2023, published 2025).

B1: TFPI2 recombinant protein (tissue factor pathway inhibitor 2; BioVision, #7481-10) (ligand, UniProt P48307 23-235, looked up)
chain: DAAQEPTGNNAEICLLPLDYGPCRALLLRYYYDRYTQSCRQFLYGGCEGNANNFYTWEACDDACWRIEKVPKVCRLQVSVDDQCEGSTEKYFFNLSSMTCEKFFSGGCHRNRIENRFPDEATCMGFCAPKKIPSFCYSPKDEGLCSANVTRYYFNPRYRTCDAFTYTGCGGNDNNFVSREDCKRACAKALKKKKKMPKLRFASRIRKIRKKQF
notes: Bought recombinant protein added to microglia at 20 ng/ml; also called recombinant TFPI2; secreted TFPI2

Tests used:
Assay type in all cases: cell-based, human and mouse
[1] = tested on: PrhMG, HMC3 and SIM-A9 microglia; test: Transwell migration assay of microglia; settings: TFPI2 recombinant protein 20 ng/ml
Procedure: For transwell migration assay, HMC3 microglia, SIM-A9 microglia, and PrhMG were suspended in serum-free culture medium and seeded into transwell 24-well plates with permeable polycarbonate membrane inserts (5.0 μm, Corning, #07-200-149). GSC conditioned media (CM), or basal cell culture medium with TFPI2 recombinant protein (BioVision, #7481-10) were added to the remaining receiver wells. The STAT6 inhibitor AS151749 (Selleck Chemicals, #S8685) was used to study the role of STAT6 in microglia migration. The CD51 inhibitor MK-0429 (MedChemExpress, #HY-15102) was used to study the role of CD51 in TFPI2-induced microglia migration. After 10 hrs, the migrated microglia were fixed and stained with crystal violet (Sigma, #C-3886). The number of transferred cells was counted using ImageJ (NIH, Bethesda, […]).

[2] = tested on: SIM-A9, HMC3 microglia and PrhMG; test: Flow cytometry for CD206 and ARG1 (microglia immunosuppressive polarization); settings: TFPI2 recombinant protein 20 ng/ml
Procedure: For membrane protein staining, the single-cell suspensions were washed with PBS and then incubated with fixable viability dye (Invitrogen, #5211229035) on ice for 10 min. Following washing with PBS, cells were incubated with the anti-CD16/CD32 cocktail (BioLegend, #103132) in 2% BSA PBS to block Fc receptors for 30 min on ice. Different antibody combinations, including Percp/Cy5.5 anti-mouse CD45 (BioLegend, #103132), AF488 anti-mouse CD3 (BioLegend, #100210), BV421 anti-mouse CX3CR1 (BD Bioscience, #567531), BUV395 anti-mouse CD4 (BD Bioscience, #740208), BV711 anti-mouse CD8 (BioLegend, #100747), PE/Cy7 anti-mouse/human CD11b (BioLegend, #101216), PE anti-mouse CD68 (BD Bioscience, #566386), PE anti-mouse PD1 (BioLegend, #135205), AF647 anti-mouse CD206 (BD Bioscience, #565250), AF647 anti-human CD206 (BioLegend, #321116), PE anti-human CD69 (BioLegend, #310906), PE/Cy7 anti-mouse CD69 (BioLegend, #104512), and BV650 anti-human HLA-DR (BioLegend, #307650) were added to cell suspensions for 30 min on ice. […] Samples were read in BD FACSymphony flow cytometer and analyzed in FlowJo v10.8.1.
Intracellular protein staining was performed separately or followed by cell surface marker staining. […] Then cell suspensions were rewashed in permeabilization buffer and read in BD FACSymphony flow cytometer.

[3] = tested on: SIM-A9 and HMC3 microglia; test: RT-qPCR for microglia marker expression; settings: TFPI2 recombinant protein 20 ng/ml
Procedure: Cells were pelleted, and RNA was isolated with the RNeasy Mini Kit (Qiagen, #74106). RNA was quantified by NanoDrop spectrophotometers and then reverse-transcribed into cDNA by using the All-In-One 5×RT MasterMix (Applied Biological Materials, #G592) in T00 Thermal Cycler (Bio-Rad). RT-qPCR was performed using SYBR Green PCR Master Mix (Bio-Rad, #1725275) in CFX Connect Real-Time PCR Detection System (Bio-Rad). The expression of each gene was normalized to housekeeping genes.

[4] = tested on: STAT6; test: Immunoblot and flow cytometry for P-STAT6 in microglia; settings: TFPI2 recombinant protein, indicated concentrations and time points
Procedure: The protein expression in cells was determined by western blotting analysis (Ref. 61; incorporated by reference in its entirety). Cells were homogenized in RIPA lysis buffer containing phosphatase/protease cocktail inhibitors (Cell Signaling Technology, #5870). The protein concentration was determined by BCA Protein Assay Kit (Thermo Fisher Scientific, #P123225). Protein solution was mixed with the Leammli sample buffer and heated at 95° C. before loading to SurePAGE gels (GenScript, #M00653). The gels were run at a constant voltage of 80 V and then transferred to 0.2 μm nitrocellulose membrane (Bio-Rad, #1620112) using the Trans-Blot Turbo system (Bio-Rad) with a preprogrammed standard protocol for 30 min. Nitrocellulose membrane was incubated with 5% dry milk to block any unspecific staining. […]

Molecule | TFPI2-induced transwell migration of human and mouse microglia ([1]; AS1517499 at indicated concentrations) | TFPI2-induced increase of immunosuppressive microglia (CD206 and ARG1 expression) ([2]; mouse and human microglia, AS1517499 25 nM) | TFPI2-induced suppression of immunostimulatory microglia markers (MIF, IL23, CXCL11, IL6, TNFA, LFNG, HLA-DR) ([3]; AS1517499 25 nM) | migration of microglia (SIM-A9, HMC3, PrhMG) [1] | immunosuppressive microglia (CD206 and ARG1 expression) [2] | expression of immunostimulatory microglia markers (RT-qPCR) [3] | phosphorylation of STAT6 in human and mouse microglia [4]
NC(=O)c1cnc(NCCc2ccc(O)c(Cl)c2)nc1NCc1ccccc1 [AS1517499] | suppressed | negated | countered |  |  |  | 
B1 |  |  |  | dramatically increased | increased | suppressed | increased
